Experimental data published in patent US20260078416A1, “ORTHOGONAL METABOLIC FRAMEWORK FOR ONE-CARBON UTILIZATION” (Mojia Biotech Pte. Ltd., priority 2021, published 2026).

Legend:
[1] = system: 2,4-dihydroxybutyric acid production from 3-hydroxypropionaldehyde and formate; test: HACS screening with 3-hydroxypropionaldehyde and formate (DHB productivity); assay type: cell-based, E. coli; settings: 5 mM 3HP and 20 mM formate, first round
From the text: We used 2-hydroxyacid productivity per cell density (μM/OD600) as indicator of HACS activity. 2-Hydroxyacids can be produced co-feeding various aldehydes and formic acid (formate) as carbon source in the presence of active HACS variant and acyl-CoA transferase from Clostridium aminobutyricum (CaAbfT). CaAbfT is shown to be capable of catalyzing reaction from formate to formyl-CoA (Nattermann, M., et al. ACS Catal 11 (9): 5396-5404 (2021)). HACS condenses aldehyde and formyl-CoA to form 2-hydroxyacyl-CoA, which can then be hydrolyzed to 2-hydroxyacid via native thioesterase activities (FIG. 31A).
For the in vivo prototyping, we engineered vectors to independently control expression of HACS variants and CaAbfT, with HACS under control of the IPTG-inducible T7 promoter in pCDFDuet-1 and CaAbfT under control of a cumate-inducible T5 promoter in pETDuet-1 (FIG. 31B) and transformed them into the engineered strain of E. coli described in EXAMPLE 3.
The HACS variants were screened for 2-hydroxyacid production using the high throughput screening platform as described in EXAMPLE 3 by co-feeding 5 mM aldehyde and 20 mM formate. The cells were harvested after 1 hour by centrifugation and the supernatant analyzed by HPLC (as described in EXAMPLE 2) or SoGO method.
We used 2,4-dihydroxybutyric acid (DHB) productivity per cell density (uM DHB/OD600) as indicator of HACS activity. […]

[2] = system: glycolate production from formaldehyde and formate; test: Resting-cell bioconversion pathway 2 (HACS with CaAbfT), co-feeding formaldehyde and formate; assay type: cell-based, E. coli
From the text: We used glycolic acid (glycolate) productivity per cell density (uM glycolate/OD600) as indicator of HACS activity. Two different enzymatic routes for glycolate synthesis are explored. The first pathway (pathway 1) is similar to the pathway used for initial screening in Example 2 with addition of an extra gene, aldehyde dehydrogenase aldA from Escherichia coli (EcAldA) overexpressed to drive flux from glycolaldehyde to glycolate (FIG. 21A). In addition, HACS and LmACR-AldA are controlled under independent inducible promoters to investigate the impact of varying relative gene expressions (FIG. 21B). The second pathway (pathway 2) involves independent fluxes of formaldehyde and formyl-CoA allowing assessment of the enzyme activity with response to changing formaldehyde concentration only, while maintaining constant formyl-CoA flux. Formyl-CoA is generated by formic acid (formate) catalyzed by the acyl-CoA transferase from Clostridium aminobutyricum (CaAbfT) (FIG. 22A).
For the in vivo prototyping, we engineered vectors to independently control expression of HACS variants and the LmACR-EcAldA (pathway 1, FIG. 21A) or CaAbfT (pathway 2, FIG. 22A), with HACS under control of the IPTG-inducible T7 promoter in pCDFDuet-1 and LmACR-EcAldA or CaAbfT under control of a cumate-inducible T5 promoter in pETDuet-1 (FIG. 21B). As a host for these vectors, we used an engineered strain of E. coli based on MG1655(DE3) with knockouts for formaldehyde (ΔfrmA) and formate (ΔfdhF ΔfdnG ΔfdoG) oxidation as well as for glycolate utilization (ΔglcD)), which we expected could compete or interfere with the analysis of our pathway. […]
Cells from the above pre-cultures were then centrifuged (4000 rpm, 22° C.), washed with the above minimal media without any carbon source, and resuspended with 1 mL of above minimal media containing indicated amounts of carbon source. […] The cells were harvested after 3 hours for LmACR-EcAldA co-expression and 1 hour for CaAbfT co-expression by centrifugation and the supernatant analyzed by HPLC or GC-MS as described in EXAMPLE 2. […]

[3] = 0.5 mM formaldehyde and 20 mM formate co-fed

Molecule | DHB productivity [1] | glycolate productivity relative to JGI20 [2, 3] [fold] | glycolate productivity relative to RuHACL [2, 3] [fold] | glycolate productivity under high formaldehyde concentration ([2]; 5 mM formaldehyde and 20 mM formate co-fed)
JGI15: HACS variant; GenBank HAK63664.1 (protein) MAKSEGKVNGATLMARALQQQGVQYMFGIVGFPVIPIAIAAQREGITYIGMRNEQSASYAAQAASYLTGRPQACLVVSGPGVVHALAGLANAQVNCWPMLLIGGASAIEQNGMGAFQEERQVLLASPLCKYAHQVERPERIPYYVEQAVRSALFGRPGAAYLDMPDDVILGEVEEAAVRPAATVGEPPRSLAPQENIEAALDALQSAKRPLVIVGKGMAWSRAENEVRQFIERTRLPFLATPMGKGVMPDDHPLSVGGARSHALQEADLVFLLGARFNWILHFGLPPRYSKDVRVIQLDLSAEEIGNNRQAEVALVGDGKAIVGQLNQALSSRQWFYPAETPWREAIAAKIAGNQAAVAPMIADNTSPMNYYRVYRDIAARLPRNAIIVGEGANTMDIGRTQMPNFEPRSRLDAGSYGTMGIGLGFAVAAAAVHPGRPVIAVQGDSAFGFSGMEFETAARYGMPIKVIILNNGGIGMGSPAPRDGQPGMPHALSHDARYERIAEAFGGAGFYVTDSAELGPALDAAMAFKGPAIVNIKIAATADRKPQQFNWHG | decent DHB productivity | 1.5 | 7 | –
JGI20: HACS variant; GenBank PWB41796.1 (protein) MGQITGAQIVARALKQQGVEYMFGIVGIPVIPIAMFAQREGIKFYGFRNEQSASYAAAAVGYLTGRPGVCLGVSGPGMIHGVAGMANAWSNCWPMILIGGANDSYQNGQGAFQEAPQIEAARPFAKYCARPDSLARLPFYVEQAVRTSIYGRPGAVYLDLPGDIITGAMEEEDVHFPPRCPDAPRMMAPQESIDAAMAALKSAERPLVIVGKGAAYSRAENEVREFLETTQLPYLASPMGKGVMPDDHPLSIAPARSAALLGADVILLMGARLNWMMHFGHPPRFDPKVRVIQMDISAEEIGTNVPTEVALVGDAKAITTQLNASLKQQPWQYPSETTWWTGLRKKIDENGATVAEMMADESVPMSYYRVYREIRDLIPNDAIIQNEGASTMDIGRTLMPNFLPRHRLDAGSFGTMGVGLGQAIAAAAVHPDKHVFCIEGDSAFGFSGMEVETAARYGMKNITFIIINNNGIGGGPDTLDPTRVPPSAYTPNAHYEKMAEIYGGKGYFVTEPSQLRPALEEAIKADKPAIVNIMISATSQRKPQQFAWLTR | decent DHB productivity | – | – | better glycolate productivity
